Article PMC9352680, “A comprehensive thermodynamic model for RNA binding by the Saccharomyces cerevisiae Pumilio protein PUF4”

T1: PUF4 RNA-binding domain (Saccharomyces cerevisiae, UniProt P25339 537-888)
T1 sequence: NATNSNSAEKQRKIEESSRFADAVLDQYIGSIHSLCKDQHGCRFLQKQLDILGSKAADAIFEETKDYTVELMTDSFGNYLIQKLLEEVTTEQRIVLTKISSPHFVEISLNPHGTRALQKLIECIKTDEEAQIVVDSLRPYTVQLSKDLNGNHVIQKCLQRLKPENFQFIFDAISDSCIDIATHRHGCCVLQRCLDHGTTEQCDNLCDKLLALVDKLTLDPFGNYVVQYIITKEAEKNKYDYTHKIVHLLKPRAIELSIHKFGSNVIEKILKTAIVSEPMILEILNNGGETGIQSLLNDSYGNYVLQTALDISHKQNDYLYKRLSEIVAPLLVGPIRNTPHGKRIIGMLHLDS

B1: Ic_S4_P5E.1_K5.1_C5.1_H5.1_A5.1_[A7T]_F5.1_[T8G]_[T9C]_[A10C]_T5.1 (ssRNA)
RNA: UUUGACAACUGAUCGUUCUUUCUUGUAUUUGCCUUCUUUCUCGAUCAGUUGUCUUU
B2: Ic_S4_P5E.1_K5.1_C5.1_H5.1_A5.1_[T5C]_[T6A]_[A7C]_F5.1_[T9C]_[A10C]_T5.1 (ssRNA)
RNA: UUUGACAACUGAUCGUUCUUUCUUGUACACUCCUUCUUUCUCGAUCAGUUGUCUUU
B3: Ic_S4_P5E.1_K5.1_C5.1_H5.1_A5.1_[T5A]_[T6C]_[A7C]_F5.1_[T9C]_[A10G]_T5.1 (ssRNA)
RNA: UUUGACAACUGAUCGUUCUUUCUUGUAACCUCGUUCUUUCUCGAUCAGUUGUCUUU
B4: Ic_S4_P5E.1_K5.1_C5.1_H5.1_A5.1_[T5C]_[A7G]_F5.1_[T8C]_[T9G]_[A10C]_T5.1 (ssRNA)
RNA: UUUGACAACUGAUCGUUCUUUCUUGUACUGCGCUUCUUUCUCGAUCAGUUGUCUUU
B5: Ic_S4_P5E.1_K5.1_C5.1_H5.1_A5.1_[T6A]_[A7C]_F5.1_[T8A]_[T9C]_[A10T]_T5.1 (ssRNA)
RNA: UUUGACAACUGAUCGUUCUUUCUUGUAUACACUUUCUUUCUCGAUCAGUUGUCUUU
B6: Ic_S4_P5E.1_K5.1_C5.1_H5.1_A5.1_[T5G]_[T6C]_[A7T]_F5.1_[T8A]_[A10T]_T5.1 (ssRNA)
RNA: UUUGACAACUGAUCGUUCUUUCUUGUAGCUAUUUUCUUUCUCGAUCAGUUGUCUUU
B7: Ic_S4_P5E.1_K5.1_C5.1_H5.1_A5.1_[T5A]_[T6A]_[A7T]_F5.1_[T8C]_[T9A]_[A10G]_T5.1 (ssRNA)
RNA: UUUGACAACUGAUCGUUCUUUCUUGUAAAUCAGUUCUUUCUCGAUCAGUUGUCUUU
B8: Ic_S4_P5E.1_K5.1_C5.1_H5.1_A5.1_[T5C]_[T6A]_[A7C]_F5.1_[T8A]_[A10G]_T5.1 (ssRNA)
RNA: UUUGACAACUGAUCGUUCUUUCUUGUACACAUGUUCUUUCUCGAUCAGUUGUCUUU
B9: Ic_S4_P5E.1_K5.1_C5.1_H5.1_A5.1_[T6G]_[A7T]_F5.1_[T8C]_[T9C]_[A10C]_T5.1 (ssRNA)
RNA: UUUGACAACUGAUCGUUCUUUCUUGUAUGUCCCUUCUUUCUCGAUCAGUUGUCUUU
B10: Ic_S4_P5E.1_K5.1_C5.1_H5.1_A5.1_F5.1_[T8C]_[T9C]_[A10T]_T5.1 (ssRNA)
RNA: UUUGACAACUGAUCGUUCUUUCUUGUAUUACCUUUCUUUCUCGAUCAGUUGUCUUU
B11: Ic_S4_P5E.1_K5.1_C5.1_H5.1_A5.1_[T6G]_[A7C]_F5.1_[T8A]_T5.1 (ssRNA)
RNA: UUUGACAACUGAUCGUUCUUUCUUGUAUGCAUAUUCUUUCUCGAUCAGUUGUCUUU
B12: Ic_S4_P5E.1_K5.1_C5.1_H5.1_A5.1_[T6C]_[A7G]_F5.1_[T8A]_[A10C]_T5.1 (ssRNA)
RNA: UUUGACAACUGAUCGUUCUUUCUUGUAUCGAUCUUCUUUCUCGAUCAGUUGUCUUU
B13: Ic_S4_P5E.1_K5.1_C5.1_H5.1_A5.1_[T5C]_[T6C]_[A7C]_F5.1_[T8G]_[T9C]_[A10C]_T5.1 (ssRNA)
RNA: UUUGACAACUGAUCGUUCUUUCUUGUACCCGCCUUCUUUCUCGAUCAGUUGUCUUU
B14: Ic_S4_P5E.1_K5.1_C5.1_H5.1_A5.1_[T5A]_[A7C]_F5.1_[T8A]_[T9G]_[A10C]_T5.1 (ssRNA)
RNA: UUUGACAACUGAUCGUUCUUUCUUGUAAUCAGCUUCUUUCUCGAUCAGUUGUCUUU
B15: Ic_S4_P5E.1_K5.1_C5.1_H5.1_A5.1_[T5C]_[T6A]_F5.1_[T9C]_[A10T]_T5.1 (ssRNA)
RNA: UUUGACAACUGAUCGUUCUUUCUUGUACAAUCUUUCUUUCUCGAUCAGUUGUCUUU
B16: Ic_S4_P5E.1_K5.1_C5.1_H5.1_A5.1_[T5C]_[T6C]_[A7G]_F5.1_[T8G]_[T9C]_[A10C]_T5.1 (ssRNA)
RNA: UUUGACAACUGAUCGUUCUUUCUUGUACCGGCCUUCUUUCUCGAUCAGUUGUCUUU
B17: Ic_S4_P5E.1_K5.1_C5.1_H5.1_A5.1_[T5A]_F5.1_[T8C]_[T9C]_[A10T]_T5.1 (ssRNA)
RNA: UUUGACAACUGAUCGUUCUUUCUUGUAAUACCUUUCUUUCUCGAUCAGUUGUCUUU
B18: Ic_S4_P5E.1_K5.1_C5.1_H5.1_A5.1_[T5C]_[T6A]_[A7T]_F5.1_[T8C]_[T9C]_T5.1 (ssRNA)
RNA: UUUGACAACUGAUCGUUCUUUCUUGUACAUCCAUUCUUUCUCGAUCAGUUGUCUUU
B19: Ic_S4_P5E.1_K5.1_C5.1_H5.1_A5.1_[T5A]_F5.1_[T8A]_[T9C]_[A10T]_T5.1 (ssRNA)
RNA: UUUGACAACUGAUCGUUCUUUCUUGUAAUAACUUUCUUUCUCGAUCAGUUGUCUUU
B20: Ic_S4_P5E.1_K5.1_C5.1_H5.1_A5.1_[T5G]_[T6C]_F5.1_[T9A]_[A10C]_T5.1 (ssRNA)
RNA: UUUGACAACUGAUCGUUCUUUCUUGUAGCAUACUUCUUUCUCGAUCAGUUGUCUUU
B21: Ic_S4_P5E.1_K5.1_C5.1_H5.1_A5.1_[T5A]_[T6A]_[A7T]_F5.1_[T8A]_[T9A]_[A10C]_T5.1 (ssRNA)
RNA: UUUGACAACUGAUCGUUCUUUCUUGUAAAUAACUUCUUUCUCGAUCAGUUGUCUUU
B22: Ic_S4_P5E.1_K5.1_C5.1_H5.1_A5.1_[T6C]_F5.1_[T9G]_[A10C]_T5.1 (ssRNA)
RNA: UUUGACAACUGAUCGUUCUUUCUUGUAUCAUGCUUCUUUCUCGAUCAGUUGUCUUU
B23: Ic_S4_P5E.1_K5.1_C5.1_H5.1_A5.1_[T6C]_[A7T]_F5.1_[T8A]_T5.1 (ssRNA)
RNA: UUUGACAACUGAUCGUUCUUUCUUGUAUCUAUAUUCUUUCUCGAUCAGUUGUCUUU
B24: Ic_S4_P5E.1_K5.1_C5.1_H5.1_A5.1_[T5A]_[T6A]_[A7T]_F5.1_[A10T]_T5.1 (ssRNA)
RNA: UUUGACAACUGAUCGUUCUUUCUUGUAAAUUUUUUCUUUCUCGAUCAGUUGUCUUU

Molecular target: T1, PUF4 RNA-binding domain
Experiment: Mg; RNA-MaP; 20 mM Na-HEPES pH 7.4, 30 mM KOAc, 0.75 mM MgCl2, 0.1% Tween-20, 5% glycerol, 0.1 mg/mL BSA, 2 mM DTT; 25 C; 0.0125-409.6 nM protein
Details: tags: N-His6-TEV cleaved; C-SNAP kept, Cy3B-labelled; label: tethered on chip by stalled RNA polymerase

Row | Binder | Kd [nM]
1 | B1 | 101
2 | B2 | 6.67
3 | B3 | 610
4 | B4 | 1350
5 | B5 | 75.1
6 | B6 | 56.6
7 | B7 | 180
8 | B8 | 130
9 | B9 | 66.1
10 | B10 | 160
11 | B11 | 14.1
12 | B12 | 1840
13 | B13 | 985
14 | B14 | 1930
15 | B15 | 19.7
16 | B16 | > 2300
17 | B17 | 379
18 | B18 | 20.4
19 | B19 | 561
20 | B20 | 6.93
21 | B21 | 26.6
22 | B22 | 14.6
23 | B23 | 3.97
24 | B24 | 16.9
